Measurements: US12564623B2, “Methods and compositions for treating cancer” (The University of Chicago, priority 2017, dated 2026)

Biological target: T1, CD95 (Homo sapiens, UniProt P25445)
T1 sequence (P25445 26-335): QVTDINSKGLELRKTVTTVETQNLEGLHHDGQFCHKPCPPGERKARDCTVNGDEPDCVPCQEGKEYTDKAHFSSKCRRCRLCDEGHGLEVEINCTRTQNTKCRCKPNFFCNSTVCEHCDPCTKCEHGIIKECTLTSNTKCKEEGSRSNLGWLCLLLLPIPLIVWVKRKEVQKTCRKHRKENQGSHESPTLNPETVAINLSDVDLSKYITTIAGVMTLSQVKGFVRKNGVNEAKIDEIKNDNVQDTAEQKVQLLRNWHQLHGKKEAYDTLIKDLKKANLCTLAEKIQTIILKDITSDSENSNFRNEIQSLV
Assay: CD95 loss and immunoreactivity in ELANE-treated cancer cells
Type: cell-based
Parameters: endogenous in cells; host or cells: Mel888 melanoma cells
Experimental: ELANE lowers CD95 levels in cancer cells and reduced CD95 levels are associated with apoptosis. (FIG. 8A) Recombinant proteins (1 μg) corresponding to full length CD95 (FL-CD95), N-terminal domain of CD95 (amino acids 1-173; N-CD95), or C-terminal domain of CD95 (amino acids 157-320; C-CD95) were inbuated with ELANE (0.05 μg) or vehicle (Veh) for 2 hrs at 37° C. Degradation was assessed by SDS-PAGE followed by coomassie blue staining. […] (FIG. 8C) Cancer cells were treated with ELANE (50 nM) for 1 hr, fixed in 10% formalin, and stained with N- or C-terminal specific anti-CD95 antibodies (green). Hoechst 33342 solution was used for nuclear staining (blue). Images were taken under 40×.
ELANE selectively cleaves the C-terminal domain of CD95. The CD95 pathway is essential for the survival of a wide range of cancer cells, but largely dispensable for normal cell survival (Adachi et al., Nat. Genet., 1995; Karray et al., J. Immunol., 2004). CD95 function can be modulated by proteolysis (Strand et al., Oncogene, 2004). […] Degradation was assessed by SDS-PAGE followed by staining with coomassie blue. […] Mel888 cancer cells were treated with ELANE (50 nM) for various times, and CD95 degradation was assessed by western blot analysis with a C-terminal specific anti-CD95 antibody.

B1: neutrophil elastase (protein, listed as Homo sapiens)
chain: MTLGRRLACLFLACVLPALLLGGTALASEIVGGRRARPHAWPFMVSLQLRGGHFCGATLIAPNFVMSAAHCVANVNVRAVRVVLGAHNLSRREPTRQVFAVQRIFENGYDPVNLLNDIVILQLNGSATINANVQVAQLPAQGRRLGNGVQCLAMGWGLLGRNRGIASVLQELNVTVVTSLCRRSNVCTLVRGRQAGVCFGDSGSPLVCNGLIHGIASFVRGGCASGLYPDAFAPVAQFVNWIDSIIQRSEDNPCPHPRDPDPASRTH
notes: purified native ELANE
In the case of B1, the “CD95 immunoreactivity of cancer cells” value (50 nM, 1 hr) is reported as “lose immunoreactivity to a C-terminal specific CD95 antibody, but not to an N-terminal specific CD95 antibody” and the “CD95 at the cell surface” value (incubating cancer cells with ELANE) is reported as “CD95 loss from the cell surface”.
